Experimental data: doi:10.1101/2021.05.06.443019

Target: ovine rBAT (purified with b^0,+AT) (ovine)
Assay: cryo-EM structure

stoichiometry N: 2
Substance: ovine rBAT (purified with b^0,+AT) (from UniProt A0ACI6R3A5 1-685) (natural protein)
